Patent US20220112276A1 (Janssen / Centocor, published 2022)

T1: mouse pIgR extracellular domain (ECD) (mouse, UniProt O70570 19-645)
T1 construct: Bought from R&D Systems (Cat 2800-PG-050); also called mpIgR ECD
T1 sequence: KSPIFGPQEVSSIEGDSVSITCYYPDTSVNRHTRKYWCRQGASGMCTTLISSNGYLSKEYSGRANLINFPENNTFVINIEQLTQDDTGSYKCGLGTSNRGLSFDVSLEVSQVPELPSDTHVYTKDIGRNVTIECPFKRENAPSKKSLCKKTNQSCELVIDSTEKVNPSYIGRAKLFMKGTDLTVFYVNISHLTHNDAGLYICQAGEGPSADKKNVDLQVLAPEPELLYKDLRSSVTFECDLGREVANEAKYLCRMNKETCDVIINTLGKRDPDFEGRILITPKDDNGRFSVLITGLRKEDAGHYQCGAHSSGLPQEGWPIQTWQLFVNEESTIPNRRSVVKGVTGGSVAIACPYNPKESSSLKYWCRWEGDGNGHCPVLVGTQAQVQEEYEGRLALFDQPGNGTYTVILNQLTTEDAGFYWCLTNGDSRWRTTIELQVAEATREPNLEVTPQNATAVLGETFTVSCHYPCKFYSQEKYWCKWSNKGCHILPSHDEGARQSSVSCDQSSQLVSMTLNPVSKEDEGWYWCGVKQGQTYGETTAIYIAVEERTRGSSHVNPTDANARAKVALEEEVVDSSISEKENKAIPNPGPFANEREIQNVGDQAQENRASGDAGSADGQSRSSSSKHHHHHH

T2: rat pIgR extracellular domain (rat, UniProt P15083 19-643)
T2 construct: extracellular domain
T2 sequence (looked up): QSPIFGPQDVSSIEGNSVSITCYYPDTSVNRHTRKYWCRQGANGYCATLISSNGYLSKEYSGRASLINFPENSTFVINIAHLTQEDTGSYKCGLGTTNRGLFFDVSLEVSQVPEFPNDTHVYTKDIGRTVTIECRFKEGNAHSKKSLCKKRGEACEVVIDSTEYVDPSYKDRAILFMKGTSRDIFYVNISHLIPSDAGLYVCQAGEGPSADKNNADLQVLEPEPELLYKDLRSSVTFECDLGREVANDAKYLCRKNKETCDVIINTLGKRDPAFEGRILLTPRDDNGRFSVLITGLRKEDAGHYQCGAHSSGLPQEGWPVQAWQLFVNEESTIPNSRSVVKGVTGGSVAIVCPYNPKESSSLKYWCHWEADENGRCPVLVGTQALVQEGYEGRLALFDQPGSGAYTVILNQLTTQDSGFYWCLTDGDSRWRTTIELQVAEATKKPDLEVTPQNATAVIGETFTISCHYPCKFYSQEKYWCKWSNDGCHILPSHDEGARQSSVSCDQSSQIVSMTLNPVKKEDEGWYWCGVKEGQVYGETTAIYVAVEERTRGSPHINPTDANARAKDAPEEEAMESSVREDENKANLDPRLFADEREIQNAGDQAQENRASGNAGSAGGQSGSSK


Legend:
Assay in all cases: SPR, VHH captured by anti-Fc, ECD analyte
[1] = biological target: T3, cynomolgus monkey pIgR extracellular domain (cynomolgus monkey, UniProt A0A2K5WMU9 19-638)
T3 construct: extracellular domain
Procedure, shortened: (§1)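 Single-cycle kinetics: ECD analyte from 30 nM, 3-fold series, low to high, with 30 min off-rate monitoring, over VHH captured at 0.5 ug/ml (~200-300 RU). HBSP plus 100 ug/ml BSA at 30 μL/min. Reference cell and buffer blank subtracted; global 1:1 Langmuir fit gave kon, koff, KD.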

[2] = biological target: T4, human pIgR extracellular domain (ECD) (human, UniProt P01833 19-638)
T4 construct: Bought from R&D Systems (Cat 2717-PG-050); also called hpIgR ECD
Procedure, shortened: as §1

[3] = biological target: T1, mouse pIgR extracellular domain (ECD)
Procedure, shortened: as §1

[4] = biological target: T2, rat pIgR extracellular domain
Procedure, shortened: as §1

T3 sequence (A0A2K5WMU9 entry or part of it): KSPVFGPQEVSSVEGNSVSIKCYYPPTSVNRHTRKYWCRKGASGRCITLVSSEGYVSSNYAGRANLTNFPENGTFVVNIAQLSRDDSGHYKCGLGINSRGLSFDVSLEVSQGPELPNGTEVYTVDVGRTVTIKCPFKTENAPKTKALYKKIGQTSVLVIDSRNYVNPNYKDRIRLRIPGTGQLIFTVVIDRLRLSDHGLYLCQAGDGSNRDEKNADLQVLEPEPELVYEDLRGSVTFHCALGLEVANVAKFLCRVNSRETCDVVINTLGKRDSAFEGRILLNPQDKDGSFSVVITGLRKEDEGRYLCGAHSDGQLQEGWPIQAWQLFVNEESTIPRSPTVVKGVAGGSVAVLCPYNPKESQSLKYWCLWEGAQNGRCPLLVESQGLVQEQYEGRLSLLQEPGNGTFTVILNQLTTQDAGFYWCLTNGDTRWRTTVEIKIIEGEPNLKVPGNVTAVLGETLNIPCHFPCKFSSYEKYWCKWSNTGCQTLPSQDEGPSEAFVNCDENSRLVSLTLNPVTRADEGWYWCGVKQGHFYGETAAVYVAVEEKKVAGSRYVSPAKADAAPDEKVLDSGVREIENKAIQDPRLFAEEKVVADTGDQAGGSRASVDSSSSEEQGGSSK
T4 sequence (P01833 other isoform, or with tags, fused parts or gaps): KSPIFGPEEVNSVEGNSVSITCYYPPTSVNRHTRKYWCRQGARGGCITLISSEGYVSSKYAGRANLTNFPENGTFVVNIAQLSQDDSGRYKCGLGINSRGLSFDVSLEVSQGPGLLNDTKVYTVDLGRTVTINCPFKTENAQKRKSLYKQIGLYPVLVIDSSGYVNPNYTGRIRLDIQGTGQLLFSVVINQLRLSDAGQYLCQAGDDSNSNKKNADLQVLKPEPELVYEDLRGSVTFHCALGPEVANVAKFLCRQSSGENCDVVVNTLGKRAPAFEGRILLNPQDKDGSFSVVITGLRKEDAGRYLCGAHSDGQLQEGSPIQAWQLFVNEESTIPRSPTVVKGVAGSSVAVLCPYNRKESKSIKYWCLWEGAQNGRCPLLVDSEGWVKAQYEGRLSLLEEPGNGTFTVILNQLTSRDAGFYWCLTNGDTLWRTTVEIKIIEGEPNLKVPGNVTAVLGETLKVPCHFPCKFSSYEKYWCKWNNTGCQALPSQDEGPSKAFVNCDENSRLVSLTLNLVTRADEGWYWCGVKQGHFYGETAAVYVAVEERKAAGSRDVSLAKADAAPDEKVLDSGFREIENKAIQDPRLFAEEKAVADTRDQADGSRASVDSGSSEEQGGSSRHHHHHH

Binder | Kd [1] [nM] | Kd [2] [nM] | Kd [3] [nM] | Kd [4] [nM]
01A06R3LS VHH Mono-Fc (Fc fusion) EVQLVESGGGVVQAEDSLRLSCAASGLPFSSSRMGWFRQAPGKEREFVAAIGWSGRSTYKYYADSVKGRFTVSGDNAKKTLDLQMKDLKPEDTAVYYCAAHPDYYGDPRTSGAYRYWGQGTQVTVSSSPAPELLGGPSVFLFPPKPKDTLMISRTPEVTCVVVDVSHEDPEVKFNWYVDGVEVHNAKTKPREEQYNSTYRVVSVLTVLHQDWLNGKEYKCKVSNKALPAPIEKTISKAKGQPREPQVYTKPPSREEMTKNQVSLSCLVKGFYPSDIAVEWESNGQPENNYKTTVPVLDSDGSFRLASYLTVDKSRWQQGNVFSCSVMHEALHNHYTQKSLSLSPGK | 112 | 29 | 2.26 | 9.23
01B07R3L VHH Mono-Fc (Fc fusion) EVQLVESGGGVVQAEDSLRLSCAASGLPFSSSRMGWFRQVPGKEREFVAAIGWSGRSTYRYYDDSVKGRFTVSGDNAKNTLDLQMKGLKPEDTAVYYCAADPNYYGDVRTSGTYQYWGQGTQVTVSSSPAPELLGGPSVFLFPPKPKDTLMISRTPEVTCVVVDVSHEDPEVKFNWYVDGVEVHNAKTKPREEQYNSTYRVVSVLTVLHQDWLNGKEYKCKVSNKALPAPIEKTISKAKGQPREPQVYTKPPSREEMTKNQVSLSCLVKGFYPSDIAVEWESNGQPENNYKTTVPVLDSDGSFRLASYLTVDKSRWQQGNVFSCSVMHEALHNHYTQKSLSLSPGK | 138 | 58.7 | 3.48 | 8.51
02B12R3 VHH Mono-Fc (Fc fusion) QVQLVESGGGWVQTGGSLRLSCAASGRTVSSYYMGWFRQTPGKEREFVAAISWVGSSTYKYYTDSAKGRFTISRDNAKNTVYLQMNSLKPEDTAVYYCAARPRVGDPRSRYDDDNWGQGTQVTVSSSPAPELLGGPSVFLFPPKPKDTLMISRTPEVTCVVVDVSHEDPEVKFNWYVDGVEVHNAKTKPREEQYNSTYRVVSVLTVLHQDWLNGKEYKCKVSNKALPAPIEKTISKAKGQPREPQVYTKPPSREEMTKNQVSLSCLVKGFYPSDIAVEWESNGQPENNYKTTVPVLDSDGSFRLASYLTVDKSRWQQGNVFSCSVMHEALHNHYTQKSLSLSPGK | 31.5 | 16.6 | 4.32 | 3.44
01G09R3LS VHH Mono-Fc (Fc fusion) EVQLVESGGGLVQAGDSLRLSCAASGRTFPTYAMGWFRQAPGKEREFVATIRWSGSTQYKYYADFVKGRFTISRDNAKNTVYLQMDSLKPEDTAVYYCAATTLLTDPRALNAYAYWGQGTQVTVSSSPAPELLGGPSVFLFPPKPKDTLMISRTPEVTCVVVDVSHEDPEVKFNWYVDGVEVHNAKTKPREEQYNSTYRVVSVLTVLHQDWLNGKEYKCKVSNKALPAPIEKTISKAKGQPREPQVYTKPPSREEMTKNQVSLSCLVKGFYPSDIAVEWESNGQPENNYKTTVPVLDSDGSFRLASYLTVDKSRWQQGNVFSCSVMHEALHNHYTQKSLSLSPGK | 10 | 5.77 | 5.71 | 4.27
01B08R2 VHH Mono-Fc (Fc fusion) EVQLVESGGRLVQAGGSLRLSCAASGLTRSDYAMGWFRQAPGKEREFVATLKWSEGSRFMYRAEDVKGRFTISSGAAKTTVWLDMDALNPEDTAVYYCAAGFNVGFVRRASEYNFWGQGTLVTVSSSPAPELLGGPSVFLFPPKPKDTLMISRTPEVTCVVVDVSHEDPEVKFNWYVDGVEVHNAKTKPREEQYNSTYRVVSVLTVLHQDWLNGKEYKCKVSNKALPAPIEKTISKAKGQPREPQVYTKPPSREEMTKNQVSLSCLVKGFYPSDIAVEWESNGQPENNYKTTVPVLDSDGSFRLASYLTVDKSRWQQGNVFSCSVMHEALHNHYTQKSLSLSPGK | 219 | 1.05 | 586 | 116
01F04R2LS VHH Mono-Fc (Fc fusion) EVQLVESGGGLVQTGGSLRLSCAASGRTFSSYAMGWFRQAPGKEPERDFVAALRWSNDRTYYKYYADSVKGRFTISRDNAKNTVYLQMNTLKPEDTAVYYCAGGNYFSDPRVDKEYNYWGQGTQVTVSSSPAPELLGGPSVFLFPPKPKDTLMISRTPEVTCVVVDVSHEDPEVKFNWYVDGVEVHNAKTKPREEQYNSTYRVVSVLTVLHQDWLNGKEYKCKVSNKALPAPIEKTISKAKGQPREPQVYTKPPSREEMTKNQVSLSCLVKGFYPSDIAVEWESNGQPENNYKTTVPVLDSDGSFRLASYLTVDKSRWQQGNVFSCSVMHEALHNHYTQKSLSLSPGK | 28 | 35.8 | 9.03 | 8.9

Results, then the binder that gave them:

Kd [1] [nM] | Kd [2] [nM] | Kd [3] [nM] | Kd [4] [nM] | Binder
6.54 | 4.48 | 107 | 18.2 | 01B12R2 VHH Mono-Fc (Fc fusion) EVQLVESGGGLVQAGGSLRLSCAASGRTFSSGIMGWFRQAPGKEREFVAAIEWSGGNTYKYYAESVKGRFAISRDNAKTTAYLQMGSLNPEDTALYYCAADESPSRYIDLRRPAPYHYWGQGTLVTVSSSPAPELLGGPSVFLFPPKPKDTLMISRTPEVTCVVVDVSHEDPEVKFNWYVDGVEVHNAKTKPREEQYNSTYRVVSVLTVLHQDWLNGKEYKCKVSNKALPAPIEKTISKAKGQPREPQVYTKPPSREEMTKNQVSLSCLVKGFYPSDIAVEWESNGQPENNYKTTVPVLDSDGSFRLASYLTVDKSRWQQGNVFSCSVMHEALHNHYTQKSLSLSPGK
10.1 | 28.6 | 8.93 | 6.85 | 01A07R3LS VHH Mono-Fc (Fc fusion) QVQLVESGGGLVQAGDSLRLSCAASGRTFPTYAMGWFRQAPGKEREFVATIRWSGSTQYKYYADFVKGRFTISRDNAKNTVYLQMDSLKPEDTAVYYCAATTLLGDPRALNEYAYWGQGTQVTVSSSPAPELLGGPSVFLFPPKPKDTLMISRTPEVTCVVVDVSHEDPEVKFNWYVDGVEVHNAKTKPREEQYNSTYRVVSVLTVLHQDWLNGKEYKCKVSNKALPAPIEKTISKAKGQPREPQVYTKPPSREEMTKNQVSLSCLVKGFYPSDIAVEWESNGQPENNYKTTVPVLDSDGSFRLASYLTVDKSRWQQGNVFSCSVMHEALHNHYTQKSLSLSPGK
5.94 | 13.8 | 9.2 | 4.71 | 01B04R3L VHH Mono-Fc (Fc fusion) EVQLVESGGGLVQAGDSLRLSCAASGRTFTTYVMGWFRQAPGKEREFVATIAWSGSTNYKYYADSVKGRFTISRDNAKNTVYLRMNSLKPEDTAVYYCAASTVLTDPRRLNEYANWGQGTLVTVSSSPAPELLGGPSVFLFPPKPKDTLMISRTPEVTCVVVDVSHEDPEVKFNWYVDGVEVHNAKTKPREEQYNSTYRVVSVLTVLHQDWLNGKEYKCKVSNKALPAPIEKTISKAKGQPREPQVYTKPPSREEMTKNQVSLSCLVKGFYPSDIAVEWESNGQPENNYKTTVPVLDSDGSFRLASYLTVDKSRWQQGNVFSCSVMHEALHNHYTQKSLSLSPGK
6.14 | 2.95 | 10.4 | 24.9 | 01E03R3 VHH Mono-Fc (Fc fusion) QVQLVESGGGLVQTGGSLRLSCAASGRTFSVYRVGWFRQAPGKEREFVAAVIWSGASTYKYAADSVKGRFTISRDNAENTVYLQMNSLKPEDTAVYYCAADPLGLPGPDVRVEGGYRHWGQGTLVTVSSSPAPELLGGPSVFLFPPKPKDTLMISRTPEVTCVVVDVSHEDPEVKFNWYVDGVEVHNAKTKPREEQYNSTYRVVSVLTVLHQDWLNGKEYKCKVSNKALPAPIEKTISKAKGQPREPQVYTKPPSREEMTKNQVSLSCLVKGFYPSDIAVEWESNGQPENNYKTTVPVLDSDGSFRLASYLTVDKSRWQQGNVFSCSVMHEALHNHYTQKSLSLSPGK
